Measured values published in US20260001928A1 (CORTERIA PHARMACEUTICALS, priority 2022, published 2026).
*1 amine or outer side, *2 acyl side, *3 side chain or, on linkers, in order; H or OH if unused. Side-chain parts run from the residue outwards. [ ]: non-standard residue; d: D form. The star is where a group is joined. C18 diacid = O=C(O)CCCCCCCCCCCCCCCCC(=O)*; C16 diacid = O=C(O)CCCCCCCCCCCCCCC(=O)*; γGlu = O=C(O)[C@H](CCC(=O)[*:2])N[*:1]; Pentanoyl = CCCCC(=O)*; AEEA = NCCOCCOCC(=O)O; Aib = CC(C)(N)C(=O)O; Propionyl = CCC(=O)*; Butyryl = CCCC(=O)*

T1: CRF1R receptor (UniProt P34998 24-415, limits assumed)
T1 sequence (looked up): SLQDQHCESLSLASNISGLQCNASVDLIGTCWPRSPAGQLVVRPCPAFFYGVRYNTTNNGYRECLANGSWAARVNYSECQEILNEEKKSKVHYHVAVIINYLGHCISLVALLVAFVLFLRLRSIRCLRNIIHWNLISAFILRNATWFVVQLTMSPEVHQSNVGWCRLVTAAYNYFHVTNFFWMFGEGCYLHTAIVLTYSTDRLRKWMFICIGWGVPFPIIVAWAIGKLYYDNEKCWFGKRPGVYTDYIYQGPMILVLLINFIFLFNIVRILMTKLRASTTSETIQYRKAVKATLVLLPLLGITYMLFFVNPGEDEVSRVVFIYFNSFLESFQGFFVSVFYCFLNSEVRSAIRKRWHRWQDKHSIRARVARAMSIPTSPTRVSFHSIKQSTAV

B1: SEQ ID NO 22 (peptide)
peptide: Pentanoyl-VLSLD[dV]PIKLK([γGlu-C16 diacid])Q[Aib]LLKQERQKKQREQAEKNVQILEQV-NH2
SMILES: CCCCC(=O)N[C@H](C(=O)N[C@@H](CC(C)C)C(=O)N[C@@H](CO)C(=O)N[C@@H](CC(C)C)C(=O)N[C@@H](CC(=O)O)C(=O)N[C@@H](C(=O)N1CCC[C@H]1C(=O)N[C@H](C(=O)N[C@@H](CCCCN)C(=O)N[C@@H](CC(C)C)C(=O)N[C@@H](CCCCNC(=O)CC[C@H](NC(=O)CCCCCCCCCCCCCCC(=O)O)C(=O)O)C(=O)N[C@@H](CCC(N)=O)C(=O)NC(C)(C)C(=O)N[C@@H](CC(C)C)C(=O)N[C@@H](CC(C)C)C(=O)N[C@@H](CCCCN)C(=O)N[C@@H](CCC(N)=O)C(=O)N[C@@H](CCC(=O)O)C(=O)N[C@@H](CCCNC(=N)N)C(=O)N[C@@H](CCC(N)=O)C(=O)N[C@@H](CCCCN)C(=O)N[C@@H](CCCCN)C(=O)N[C@@H](CCC(N)=O)C(=O)N[C@@H](CCCNC(=N)N)C(=O)N[C@@H](CCC(=O)O)C(=O)N[C@@H](CCC(N)=O)C(=O)N[C@@H](C)C(=O)N[C@@H](CCC(=O)O)C(=O)N[C@@H](CCCCN)C(=O)N[C@@H](CC(N)=O)C(=O)N[C@H](C(=O)N[C@@H](CCC(N)=O)C(=O)N[C@H](C(=O)N[C@@H](CC(C)C)C(=O)N[C@@H](CCC(=O)O)C(=O)N[C@@H](CCC(N)=O)C(=O)N[C@H](C(N)=O)C(C)C)[C@@H](C)CC)C(C)C)[C@@H](C)CC)C(C)C)C(C)C
B2: SEQ ID NO 36 (peptide)
peptide: Butyryl-VLSLD[dV]PIKLK([γGlu-C16 diacid])KILLEQEKQKKQREQAETNKQILAQV-NH2
SMILES: CCCC(=O)N[C@H](C(=O)N[C@@H](CC(C)C)C(=O)N[C@@H](CO)C(=O)N[C@@H](CC(C)C)C(=O)N[C@@H](CC(=O)O)C(=O)N[C@@H](C(=O)N1CCC[C@H]1C(=O)N[C@H](C(=O)N[C@@H](CCCCN)C(=O)N[C@@H](CC(C)C)C(=O)N[C@@H](CCCCNC(=O)CC[C@H](NC(=O)CCCCCCCCCCCCCCC(=O)O)C(=O)O)C(=O)N[C@@H](CCCCN)C(=O)N[C@H](C(=O)N[C@@H](CC(C)C)C(=O)N[C@@H](CC(C)C)C(=O)N[C@@H](CCC(=O)O)C(=O)N[C@@H](CCC(N)=O)C(=O)N[C@@H](CCC(=O)O)C(=O)N[C@@H](CCCCN)C(=O)N[C@@H](CCC(N)=O)C(=O)N[C@@H](CCCCN)C(=O)N[C@@H](CCCCN)C(=O)N[C@@H](CCC(N)=O)C(=O)N[C@@H](CCCNC(=N)N)C(=O)N[C@@H](CCC(=O)O)C(=O)N[C@@H](CCC(N)=O)C(=O)N[C@@H](C)C(=O)N[C@@H](CCC(=O)O)C(=O)N[C@H](C(=O)N[C@@H](CC(N)=O)C(=O)N[C@@H](CCCCN)C(=O)N[C@@H](CCC(N)=O)C(=O)N[C@H](C(=O)N[C@@H](CC(C)C)C(=O)N[C@@H](C)C(=O)N[C@@H](CCC(N)=O)C(=O)N[C@H](C(N)=O)C(C)C)[C@@H](C)CC)[C@@H](C)O)[C@@H](C)CC)[C@@H](C)CC)C(C)C)C(C)C
B3: SEQ ID NO 121 (peptide)
peptide: Pentanoyl-VLSLD[dV]PIKLK([AEEA-AEEA-γGlu-C18 diacid])KILLEQEKQKKQREQAETNVQILAQV-NH2
SMILES: CCCCC(=O)N[C@H](C(=O)N[C@@H](CC(C)C)C(=O)N[C@@H](CO)C(=O)N[C@@H](CC(C)C)C(=O)N[C@@H](CC(=O)O)C(=O)N[C@@H](C(=O)N1CCC[C@H]1C(=O)N[C@H](C(=O)N[C@@H](CCCCN)C(=O)N[C@@H](CC(C)C)C(=O)N[C@@H](CCCCNC(=O)COCCOCCNC(=O)COCCOCCNC(=O)CC[C@H](NC(=O)CCCCCCCCCCCCCCCCC(=O)O)C(=O)O)C(=O)N[C@@H](CCCCN)C(=O)N[C@H](C(=O)N[C@@H](CC(C)C)C(=O)N[C@@H](CC(C)C)C(=O)N[C@@H](CCC(=O)O)C(=O)N[C@@H](CCC(N)=O)C(=O)N[C@@H](CCC(=O)O)C(=O)N[C@@H](CCCCN)C(=O)N[C@@H](CCC(N)=O)C(=O)N[C@@H](CCCCN)C(=O)N[C@@H](CCCCN)C(=O)N[C@@H](CCC(N)=O)C(=O)N[C@@H](CCCNC(=N)N)C(=O)N[C@@H](CCC(=O)O)C(=O)N[C@@H](CCC(N)=O)C(=O)N[C@@H](C)C(=O)N[C@@H](CCC(=O)O)C(=O)N[C@H](C(=O)N[C@@H](CC(N)=O)C(=O)N[C@H](C(=O)N[C@@H](CCC(N)=O)C(=O)N[C@H](C(=O)N[C@@H](CC(C)C)C(=O)N[C@@H](C)C(=O)N[C@@H](CCC(N)=O)C(=O)N[C@H](C(N)=O)C(C)C)[C@@H](C)CC)C(C)C)[C@@H](C)O)[C@@H](C)CC)[C@@H](C)CC)C(C)C)C(C)C
B4: SEQ ID NO 18 (peptide)
peptide: Ac-IVLSLD[dV]PIKLK([γGlu-C16 diacid])Q[Aib]LLKQERQKKQREQAEKNVQILEQV-NH2
SMILES: CC[C@H](C)[C@H](NC(C)=O)C(=O)N[C@H](C(=O)N[C@@H](CC(C)C)C(=O)N[C@@H](CO)C(=O)N[C@@H](CC(C)C)C(=O)N[C@@H](CC(=O)O)C(=O)N[C@@H](C(=O)N1CCC[C@H]1C(=O)N[C@H](C(=O)N[C@@H](CCCCN)C(=O)N[C@@H](CC(C)C)C(=O)N[C@@H](CCCCNC(=O)CC[C@H](NC(=O)CCCCCCCCCCCCCCC(=O)O)C(=O)O)C(=O)N[C@@H](CCC(N)=O)C(=O)NC(C)(C)C(=O)N[C@@H](CC(C)C)C(=O)N[C@@H](CC(C)C)C(=O)N[C@@H](CCCCN)C(=O)N[C@@H](CCC(N)=O)C(=O)N[C@@H](CCC(=O)O)C(=O)N[C@@H](CCCNC(=N)N)C(=O)N[C@@H](CCC(N)=O)C(=O)N[C@@H](CCCCN)C(=O)N[C@@H](CCCCN)C(=O)N[C@@H](CCC(N)=O)C(=O)N[C@@H](CCCNC(=N)N)C(=O)N[C@@H](CCC(=O)O)C(=O)N[C@@H](CCC(N)=O)C(=O)N[C@@H](C)C(=O)N[C@@H](CCC(=O)O)C(=O)N[C@@H](CCCCN)C(=O)N[C@@H](CC(N)=O)C(=O)N[C@H](C(=O)N[C@@H](CCC(N)=O)C(=O)N[C@H](C(=O)N[C@@H](CC(C)C)C(=O)N[C@@H](CCC(=O)O)C(=O)N[C@@H](CCC(N)=O)C(=O)N[C@H](C(N)=O)C(C)C)[C@@H](C)CC)C(C)C)[C@@H](C)CC)C(C)C)C(C)C
B5: SEQ ID NO 81 (peptide)
peptide: Pentanoyl-VLSLD[dV]PIKLK([γGlu-C16 diacid])KILLEQEKQKKQREQAETNVQILAQV-NH2
SMILES: CCCCC(=O)N[C@H](C(=O)N[C@@H](CC(C)C)C(=O)N[C@@H](CO)C(=O)N[C@@H](CC(C)C)C(=O)N[C@@H](CC(=O)O)C(=O)N[C@@H](C(=O)N1CCC[C@H]1C(=O)N[C@H](C(=O)N[C@@H](CCCCN)C(=O)N[C@@H](CC(C)C)C(=O)N[C@@H](CCCCNC(=O)CC[C@H](NC(=O)CCCCCCCCCCCCCCC(=O)O)C(=O)O)C(=O)N[C@@H](CCCCN)C(=O)N[C@H](C(=O)N[C@@H](CC(C)C)C(=O)N[C@@H](CC(C)C)C(=O)N[C@@H](CCC(=O)O)C(=O)N[C@@H](CCC(N)=O)C(=O)N[C@@H](CCC(=O)O)C(=O)N[C@@H](CCCCN)C(=O)N[C@@H](CCC(N)=O)C(=O)N[C@@H](CCCCN)C(=O)N[C@@H](CCCCN)C(=O)N[C@@H](CCC(N)=O)C(=O)N[C@@H](CCCNC(=N)N)C(=O)N[C@@H](CCC(=O)O)C(=O)N[C@@H](CCC(N)=O)C(=O)N[C@@H](C)C(=O)N[C@@H](CCC(=O)O)C(=O)N[C@H](C(=O)N[C@@H](CC(N)=O)C(=O)N[C@H](C(=O)N[C@@H](CCC(N)=O)C(=O)N[C@H](C(=O)N[C@@H](CC(C)C)C(=O)N[C@@H](C)C(=O)N[C@@H](CCC(N)=O)C(=O)N[C@H](C(N)=O)C(C)C)[C@@H](C)CC)C(C)C)[C@@H](C)O)[C@@H](C)CC)[C@@H](C)CC)C(C)C)C(C)C
B6: SEQ ID NO 35 (peptide)
peptide: Propionyl-VLSLD[dV]PIKLK([γGlu-C16 diacid])KILLEQEKQKKQREQAETNKQILAQV-NH2
SMILES: CCC(=O)N[C@H](C(=O)N[C@@H](CC(C)C)C(=O)N[C@@H](CO)C(=O)N[C@@H](CC(C)C)C(=O)N[C@@H](CC(=O)O)C(=O)N[C@@H](C(=O)N1CCC[C@H]1C(=O)N[C@H](C(=O)N[C@@H](CCCCN)C(=O)N[C@@H](CC(C)C)C(=O)N[C@@H](CCCCNC(=O)CC[C@H](NC(=O)CCCCCCCCCCCCCCC(=O)O)C(=O)O)C(=O)N[C@@H](CCCCN)C(=O)N[C@H](C(=O)N[C@@H](CC(C)C)C(=O)N[C@@H](CC(C)C)C(=O)N[C@@H](CCC(=O)O)C(=O)N[C@@H](CCC(N)=O)C(=O)N[C@@H](CCC(=O)O)C(=O)N[C@@H](CCCCN)C(=O)N[C@@H](CCC(N)=O)C(=O)N[C@@H](CCCCN)C(=O)N[C@@H](CCCCN)C(=O)N[C@@H](CCC(N)=O)C(=O)N[C@@H](CCCNC(=N)N)C(=O)N[C@@H](CCC(=O)O)C(=O)N[C@@H](CCC(N)=O)C(=O)N[C@@H](C)C(=O)N[C@@H](CCC(=O)O)C(=O)N[C@H](C(=O)N[C@@H](CC(N)=O)C(=O)N[C@@H](CCCCN)C(=O)N[C@@H](CCC(N)=O)C(=O)N[C@H](C(=O)N[C@@H](CC(C)C)C(=O)N[C@@H](C)C(=O)N[C@@H](CCC(N)=O)C(=O)N[C@H](C(N)=O)C(C)C)[C@@H](C)CC)[C@@H](C)O)[C@@H](C)CC)[C@@H](C)CC)C(C)C)C(C)C

The binders below were run against human corticotropin-releasing factor 2a (CRF2a receptor) (human), Q13324 (assay: cell-based or functional assay).
Sequence of human corticotropin-releasing factor 2a (CRF2a receptor) (human), Q13324 (Q13324 20-411): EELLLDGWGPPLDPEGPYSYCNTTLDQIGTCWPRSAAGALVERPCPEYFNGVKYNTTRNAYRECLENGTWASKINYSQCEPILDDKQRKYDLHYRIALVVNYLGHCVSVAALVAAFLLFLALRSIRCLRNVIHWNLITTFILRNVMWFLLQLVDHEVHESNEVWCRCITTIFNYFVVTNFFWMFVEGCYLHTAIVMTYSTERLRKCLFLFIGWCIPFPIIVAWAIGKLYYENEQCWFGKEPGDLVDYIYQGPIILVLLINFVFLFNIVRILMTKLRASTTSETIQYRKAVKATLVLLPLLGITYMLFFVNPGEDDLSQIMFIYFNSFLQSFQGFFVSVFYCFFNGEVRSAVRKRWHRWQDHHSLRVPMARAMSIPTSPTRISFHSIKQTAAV

Row | EC50 [nM] (cAMP) | Binder
1 | 4.44 | B1
2 | 0.14 | B2
3 | 5.76 | B3
4 | 3.55 | B4
5 | 0.8 | B5
6 | 0.23 | B6

These binders were tested against T1, CRF1R receptor (assay: cell-based or functional assay).

Row | Emax (% I) [%] | Binder
7 | 3 | B1
8 | 22 | B2
9 | 6 | B3
10 | 10 | B4
11 | 6 | B5
12 | 13 | B6
